Data on 2 molecules can be found in publication doi:10.1101/2023.06.07.544024 (bioRxiv, 2023).

This assay concerns the target FtsH (E. coli, UniProt P0AAI3 1-644). Description: cross-linking.

Chain of FtsH (P0AAI3 whole entry): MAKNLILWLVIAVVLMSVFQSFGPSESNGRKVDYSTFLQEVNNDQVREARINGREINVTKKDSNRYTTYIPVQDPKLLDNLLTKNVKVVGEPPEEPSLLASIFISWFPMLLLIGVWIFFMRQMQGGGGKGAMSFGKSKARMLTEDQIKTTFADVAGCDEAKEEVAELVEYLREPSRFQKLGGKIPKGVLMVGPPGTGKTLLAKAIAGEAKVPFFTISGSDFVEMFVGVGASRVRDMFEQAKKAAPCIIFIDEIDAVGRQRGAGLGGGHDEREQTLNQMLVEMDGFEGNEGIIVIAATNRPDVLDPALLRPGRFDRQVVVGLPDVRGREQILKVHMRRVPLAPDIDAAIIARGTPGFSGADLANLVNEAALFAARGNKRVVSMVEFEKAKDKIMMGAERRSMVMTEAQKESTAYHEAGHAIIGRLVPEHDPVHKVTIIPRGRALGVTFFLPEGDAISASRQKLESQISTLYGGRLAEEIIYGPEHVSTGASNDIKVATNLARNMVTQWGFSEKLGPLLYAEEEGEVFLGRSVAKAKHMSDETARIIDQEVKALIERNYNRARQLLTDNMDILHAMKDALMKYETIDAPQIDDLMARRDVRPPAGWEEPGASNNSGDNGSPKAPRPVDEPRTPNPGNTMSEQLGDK

B1: HflC (natural protein, E. coli)
chain: MRKSVIAIIIIVLVVLYMSVFVVKEGERGITLRFGKVLRDDDNKPLVYEPGLHFKIPFIETVKMLDARIQTMDNQADRFVTKEKKDLIVDSYIKWRISDFSRYYLATGGGDISQAEVLLKRKFSDRLRSEIGRLDVKDIVTDSRGRLTLEVRDALNSGSAGTEDEVTTPAADNAIAEAAERVTAETKGKVPVINPNSMAALGIEVVDVRIKQINLPTEVSEAIYNRMRAEREAVARRHRSQGQEEAEKLRATADYEVTRTLAEAERQGRIMRGEGDAEAAKLFADAFSKDPDFYAFIRSLRAYENSFSGNQDVMVMSPDSDFFRYMKTPTSATR
B1: the binding result is on record as “binds”.

B2: HflK (natural protein, E. coli)
chain: MAWNQPGNNGQDRDPWGSSKPGGNSEGNGNKGGRDQGPPDLDDIFRKLSKKLGGLGGGKGTGSGGGSSSQGPRPQLGGRVVTIAAAAIVIIWAASGFYTIKEAERGVVTRFGKFSHLVEPGLNWKPTFIDEVKPVNVEAVRELAASGVMLTSDENVVRVEMNVQYRVTNPEKYLYSVTSPDDSLRQATDSALRGVIGKYTMDRILTEGRTVIRSDTQRELEETIRPYDMGITLLDVNFQAARPPEEVKAAFDDAIAARENEQQYIREAEAYTNEVQPRANGQAQRILEEARAYKAQTILEAQGEVARFAKLLPEYKAAPEITRERLYIETMEKVLGNTRKVLVNDKGGNLMVLPLDQMLKGGNAPAAKSDNGASNLLRLPPASSSTTSGASNTSSTSQGDIMDQRRANAQRNDYQRQGE
Regarding B2, the binding result was “binds”.
